Results as given in patent publication US10766960 (dated 2020).

T1: FcgRIIb (human, UniProt P31994)
T1 chain: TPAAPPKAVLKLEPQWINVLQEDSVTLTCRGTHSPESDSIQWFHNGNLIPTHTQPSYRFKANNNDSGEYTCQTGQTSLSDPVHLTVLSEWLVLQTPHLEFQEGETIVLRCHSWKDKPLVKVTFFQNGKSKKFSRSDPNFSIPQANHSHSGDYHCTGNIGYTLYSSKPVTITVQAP

T2: FcgRIIa H (human, UniProt P12318)
T2 chain: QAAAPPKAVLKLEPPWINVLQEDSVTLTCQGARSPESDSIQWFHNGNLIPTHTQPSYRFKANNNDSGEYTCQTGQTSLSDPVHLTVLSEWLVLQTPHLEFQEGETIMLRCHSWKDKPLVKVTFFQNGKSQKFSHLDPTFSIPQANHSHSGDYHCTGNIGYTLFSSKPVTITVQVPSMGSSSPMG

T3: FcgRIa (human, UniProt P12314)
T3 chain: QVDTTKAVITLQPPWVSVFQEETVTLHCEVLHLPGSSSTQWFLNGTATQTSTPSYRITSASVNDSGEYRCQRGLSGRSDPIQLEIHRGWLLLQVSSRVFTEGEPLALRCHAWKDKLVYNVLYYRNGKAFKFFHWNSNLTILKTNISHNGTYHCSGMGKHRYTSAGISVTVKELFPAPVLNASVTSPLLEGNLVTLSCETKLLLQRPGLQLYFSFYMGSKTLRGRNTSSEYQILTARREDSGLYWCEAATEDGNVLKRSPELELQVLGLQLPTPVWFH

T4: FcgRIIa R (human, UniProt P12318)
T4 chain: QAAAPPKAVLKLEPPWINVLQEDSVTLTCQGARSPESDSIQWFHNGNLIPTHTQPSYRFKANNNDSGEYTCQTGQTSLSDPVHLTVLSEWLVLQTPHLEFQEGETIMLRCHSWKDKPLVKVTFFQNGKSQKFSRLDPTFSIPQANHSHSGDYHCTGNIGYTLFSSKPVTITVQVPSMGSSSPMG


Tests used:
Experiment in all cases: SPR
[1] = target: T1, FcgRIIb
[2] = target: T2, FcgRIIa H
[3] = target: FcgRIIIa V (human, UniProt P08637)
Chain of FcgRIIIa V (P08637 17-208 F176V): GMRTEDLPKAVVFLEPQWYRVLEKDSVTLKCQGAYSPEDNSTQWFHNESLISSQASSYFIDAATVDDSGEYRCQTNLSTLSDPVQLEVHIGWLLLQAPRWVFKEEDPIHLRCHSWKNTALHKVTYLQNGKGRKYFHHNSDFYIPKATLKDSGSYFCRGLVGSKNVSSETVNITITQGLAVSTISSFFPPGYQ

[4] = target: FcgRIIIa F (human, UniProt P08637)
Chain of FcgRIIIa F (P08637 17-208): as the sequence (P08637 17-208 F176V) above, with V160F counted along it

[5] = target: T3, FcgRIa
[6] = target: T4, FcgRIIa R

| Kd [1] [nM] | Kd [2] [nM] | Kd [3] [nM] | Kd [4] [nM] | Kd [5] [nM] | Kd [6] [nM] | Binder |
| --- | --- | --- | --- | --- | --- | --- |
| 270 | 49 | 0.76 | 3.4 | 0.43 | 46 | H240-Kn203/H240-Hl068/L73-k0 (antibody) chain 1: QDQLVQSGAEVKKPGASVKVSCKASGFNIKDTYIQWVRQAPGQGLEWMGRIDPLRKQTKYREKFEGRVTITADTSTNTAYMELSSLRSEDTAVYYCVRSGREFDYWGQGTLVTVSSASTKGPSVFPLAPSSKSTSGGTAALGCLVKDYFPEPVTVSWNSGALTSGVHTFPAVLQSSGLYSLSSVVTVPSSSLGTQTYICNVNHKPSNTKVDKKVEPKSCDKTHTCPPCPAPEFYWGPMVFLFPPKPKDTLMISRTPEVTCVVVDVSDEDPEVKFNWYVDGVEVHNAKTKPREEQYNATYRVVSVLTVLHQDWLNGKEYKCKVSNKDLPAPIEKTISKAKGQPREPQVCTLPPSRDELTKNQVSLWCLVKGFYPSDIAVEWESNGQPENNYKTTPPVLDSDGSFFLYSKLTVDKSRWQQGNVFSCSVMHEALHNHYTQKSLSLSP chain 2: QDQLVQSGAEVKKPGASVKVSCKASGFNIKDTYIQWVRQAPGQGLEWMGRIDPLRKQTKYREKFEGRVTITADTSTNTAYMELSSLRSEDTAVYYCVRSGREFDYWGQGTLVTVSSASTKGPSVFPLAPSSKSTSGGTAALGCLVKDYFPEPVTVSWNSGALTSGVHTFPAVLQSSGLYSLSSVVTVPSSSLGTQTYICNVNHKPSNTKVDKKVEPKSCDKTHTCPPCPAPELLGGPSVFLFPPKPKDTLMISRTPEVTCVVVDVSHEEPEVKFNWYVDGVEVHNAKTKPREEQYNSTYRVVSVLTVLHQDWLNGKEYKCKVSNDALPKPIEETISKAKGQPREPQVYTLPPSRCELTKNQVSLSCAVKGFYPSDIAVEWESNGQPENNYKTTPPVLDSDGSFFLVSKLTVDKSRWQQGNVFSCSVMHEALHNHYTQKSLSLSP chain 3: DIQMTQSPSSLSASVGDRVTITCRASQDIHKYIAWYQQKPGQAPRLLIQYTSTLQPGVPSRFSGSGSGTDYTFTISSLQPEDIATYYCLQYEQLRTFGGGTKVEIKRTVAAPSVFIFPPSDEQLKSGTASVVCLLNNFYPREAKVQWKVDNALQSGNSQESVTEQDSKDSTYSLSSTLTLSKADYEKHKVYACEVTHQGLSSPVTKSFNRGEC |
| 6200 | 230 | 0.59 | 2.4 | 0.088 | 790 | H240-Kn200/H240-Hl076/L73-k0 (antibody) chain 1: QDQLVQSGAEVKKPGASVKVSCKASGFNIKDTYIQWVRQAPGQGLEWMGRIDPLRKQTKYREKFEGRVTITADTSTNTAYMELSSLRSEDTAVYYCVRSGREFDYWGQGTLVTVSSASTKGPSVFPLAPSSKSTSGGTAALGCLVKDYFPEPVTVSWNSGALTSGVHTFPAVLQSSGLYSLSSVVTVPSSSLGTQTYICNVNHKPSNTKVDKKVEPKSCDKTHTCPPCPAPESQWGPMVFLFPPKPKDTLMISRTPEVTCVVVDVSDEEPEVKFNWYVDGVEVHNAKTKPREEQYNATYRVVSVLTVLHQDWLNGKEYKCKVSNKALPAPIEKTISKAKGQPREPQVCTLPPSRDELTKNQVSLWCLVKGFYPSDIAVEWESNGQPENNYKTTPPVLDSDGSFFLYSKLTVDKSRWQQGNVFSCSVMHEALHNHYTQKSLSLSP chain 2: QDQLVQSGAEVKKPGASVKVSCKASGFNIKDTYIQWVRQAPGQGLEWMGRIDPLRKQTKYREKFEGRVTITADTSTNTAYMELSSLRSEDTAVYYCVRSGREFDYWGQGTLVTVSSASTKGPSVFPLAPSSKSTSGGTAALGCLVKDYFPEPVTVSWNSGALTSGVHTFPAVLQSSGLYSLSSVVTVPSSSLGTQTYICNVNHKPSNTKVDKKVEPKSCDKTHTCPPCPAPELLGGPSVFLFPPKPKDTLMISRTPEVTCVVVDVSHEEPEVKFNWYVDGVEVHNAKTKPREEQYNSTYRVVSVLTVLHQDWLNGKEYKCKVSNDALPMPIEETISKAKGQPREPQVYTLPPSRCELTKNQVSLSCAVKGFYPSDIAVEWESNGQPENNYKTTPPVLDSDGSFFLVSKLTVDKSRWQQGNVFSCSVMHEALHNHYTQKSLSLSP chain 3: DIQMTQSPSSLSASVGDRVTITCRASQDIHKYIAWYQQKPGQAPRLLIQYTSTLQPGVPSRFSGSGSGTDYTFTISSLQPEDIATYYCLQYEQLRTFGGGTKVEIKRTVAAPSVFIFPPSDEQLKSGTASVVCLLNNFYPREAKVQWKVDNALQSGNSQESVTEQDSKDSTYSLSSTLTLSKADYEKHKVYACEVTHQGLSSPVTKSFNRGEC |
| 130 | 27 | 0.41 | 2.3 | 0.31 | 20 | H240-Kn199/H240-Hl068/L73-k0 (antibody) chain 1: QDQLVQSGAEVKKPGASVKVSCKASGFNIKDTYIQWVRQAPGQGLEWMGRIDPLRKQTKYREKFEGRVTITADTSTNTAYMELSSLRSEDTAVYYCVRSGREFDYWGQGTLVTVSSASTKGPSVFPLAPSSKSTSGGTAALGCLVKDYFPEPVTVSWNSGALTSGVHTFPAVLQSSGLYSLSSVVTVPSSSLGTQTYICNVNHKPSNTKVDKKVEPKSCDKTHTCPPCPAPELYWGPMVFLFPPKPKDTLMISRTPEVTCVVVDVSDEDPEVKFNWYVDGVEVHNAKTKPREEQYNATYRVVSVLTVLHQDWLNGKEYKCKVSNKDLPAPIEKTISKAKGQPREPQVCTLPPSRDELTKNQVSLWCLVKGFYPSDIAVEWESNGQPENNYKTTPPVLDSDGSFFLYSKLTVDKSRWQQGNVFSCSVMHEALHNHYTQKSLSLSP chain 2: QDQLVQSGAEVKKPGASVKVSCKASGFNIKDTYIQWVRQAPGQGLEWMGRIDPLRKQTKYREKFEGRVTITADTSTNTAYMELSSLRSEDTAVYYCVRSGREFDYWGQGTLVTVSSASTKGPSVFPLAPSSKSTSGGTAALGCLVKDYFPEPVTVSWNSGALTSGVHTFPAVLQSSGLYSLSSVVTVPSSSLGTQTYICNVNHKPSNTKVDKKVEPKSCDKTHTCPPCPAPELLGGPSVFLFPPKPKDTLMISRTPEVTCVVVDVSHEEPEVKFNWYVDGVEVHNAKTKPREEQYNSTYRVVSVLTVLHQDWLNGKEYKCKVSNDALPKPIEETISKAKGQPREPQVYTLPPSRCELTKNQVSLSCAVKGFYPSDIAVEWESNGQPENNYKTTPPVLDSDGSFFLVSKLTVDKSRWQQGNVFSCSVMHEALHNHYTQKSLSLSP chain 3: DIQMTQSPSSLSASVGDRVTITCRASQDIHKYIAWYQQKPGQAPRLLIQYTSTLQPGVPSRFSGSGSGTDYTFTISSLQPEDIATYYCLQYEQLRTFGGGTKVEIKRTVAAPSVFIFPPSDEQLKSGTASVVCLLNNFYPREAKVQWKVDNALQSGNSQESVTEQDSKDSTYSLSSTLTLSKADYEKHKVYACEVTHQGLSSPVTKSFNRGEC |
| 4100 | 360 | 0.38 | 1.6 | 0.071 | 640 | H240-Kn202/H240-Hl076/L73-k0 (antibody) chain 1: QDQLVQSGAEVKKPGASVKVSCKASGFNIKDTYIQWVRQAPGQGLEWMGRIDPLRKQTKYREKFEGRVTITADTSTNTAYMELSSLRSEDTAVYYCVRSGREFDYWGQGTLVTVSSASTKGPSVFPLAPSSKSTSGGTAALGCLVKDYFPEPVTVSWNSGALTSGVHTFPAVLQSSGLYSLSSVVTVPSSSLGTQTYICNVNHKPSNTKVDKKVEPKSCDKTHTCPPCPAPEEQWGPMVFLFPPKPKDTLMISRTPEVTCVVVDVSDEEPEVKFNWYVDGVEVHNAKTKPREEQYNATYRVVSVLTVLHQDWLNGKEYKCKVSNKALPAPIEKTISKAKGQPREPQVCTLPPSRDELTKNQVSLWCLVKGFYPSDIAVEWESNGQPENNYKTTPPVLDSDGSFFLYSKLTVDKSRWQQGNVFSCSVMHEALHNHYTQKSLSLSP chain 2: QDQLVQSGAEVKKPGASVKVSCKASGFNIKDTYIQWVRQAPGQGLEWMGRIDPLRKQTKYREKFEGRVTITADTSTNTAYMELSSLRSEDTAVYYCVRSGREFDYWGQGTLVTVSSASTKGPSVFPLAPSSKSTSGGTAALGCLVKDYFPEPVTVSWNSGALTSGVHTFPAVLQSSGLYSLSSVVTVPSSSLGTQTYICNVNHKPSNTKVDKKVEPKSCDKTHTCPPCPAPELLGGPSVFLFPPKPKDTLMISRTPEVTCVVVDVSHEEPEVKFNWYVDGVEVHNAKTKPREEQYNSTYRVVSVLTVLHQDWLNGKEYKCKVSNDALPMPIEETISKAKGQPREPQVYTLPPSRCELTKNQVSLSCAVKGFYPSDIAVEWESNGQPENNYKTTPPVLDSDGSFFLVSKLTVDKSRWQQGNVFSCSVMHEALHNHYTQKSLSLSP chain 3: DIQMTQSPSSLSASVGDRVTITCRASQDIHKYIAWYQQKPGQAPRLLIQYTSTLQPGVPSRFSGSGSGTDYTFTISSLQPEDIATYYCLQYEQLRTFGGGTKVEIKRTVAAPSVFIFPPSDEQLKSGTASVVCLLNNFYPREAKVQWKVDNALQSGNSQESVTEQDSKDSTYSLSSTLTLSKADYEKHKVYACEVTHQGLSSPVTKSFNRGEC |
